Molecular target: β2AR part of the β2AR-Gs peptide fusion construct (receptor truncated at position 365) (human) (UniProt P07550)
Assay: cell-based or functional assay

agonist affinity ([3H]-DHA competition binding with isoproterenol, Sf9 membranes): 27 fold | effect on agonist binding affinity compared with the β2AR-Gs complex: 3.5 fold | fraction of β2AR in the Ki high state ([3H]-DHA / isoproterenol competition, Sf9 membranes): 0.68
Substance: last 21 amino acids of the Gαs subunit (amino acids 374-394, except for C379A), as fused in the β2AR-Gs peptide fusion construct
